Source: PMC12381204

Biological target: Nucleocapsid protein (N), unmodified (SARS-CoV-2, UniProt P0DTC9 2-419)
Test: fluorescence polarization
Conditions: protein: recombinant, tags: N-terminal 6xHis-TEV site, cleaved by TEV (Gly left before S2), chain copies: 2, label: 5'-FAM

Row | Binder | Kd (hairpin) | Kd (single strand, unstructured)
1 | CUGUGUGGCUGUCACUCGGCUGCAUGCUUAGUGCACUCACGCAG (structured_RNA) [SL4 RNA] | 10.9 ± 1.4 nM | 
2 | AAAAAAAAAAAAAAAAAAAAAAAAAAAAAA (ssRNA) [polyrA 30-mer] |  | 71.7 ± 0.8 nM
